Results reported in patent EP3350599B1.

Assays:
[1] = target: purified bone alkaline phosphatase from calf intestinal mucosa (AP; Santa Cruz sc-3716 - CAS9001-78-9) (calf) (UniProt P19111); experiment: capture ELISA, coated antibody, AP calibrator at 3.125 ng/ml, bound enzyme read with pNPP
[2] = target: purified bone alkaline phosphatase from calf intestinal mucosa (AP; Santa Cruz sc-3716 - CAS9001-78-9) (calf) (UniProt P19111); experiment: capture ELISA, coated antibody, AP calibrator at 50 ng/ml, bound enzyme read with pNPP
[3] = target: purified bone alkaline phosphatase from calf intestinal mucosa (AP; Santa Cruz sc-3716 - CAS9001-78-9) (calf) (UniProt P19111); experiment: capture ELISA, coated antibody, AP calibrator at 12.5 ng/ml, bound enzyme read with pNPP
[4] = target: purified bone alkaline phosphatase from calf intestinal mucosa (AP; Santa Cruz sc-3716 - CAS9001-78-9) (calf) (UniProt P19111); experiment: capture ELISA, coated antibody, AP calibrator at 25 ng/ml, bound enzyme read with pNPP
[5] = target: purified bone alkaline phosphatase from calf intestinal mucosa (AP; Santa Cruz sc-3716 - CAS9001-78-9) (calf) (UniProt P19111); experiment: capture ELISA, coated antibody, AP calibrator at 100 ng/ml, bound enzyme read with pNPP
[6] = target: purified bone alkaline phosphatase from calf intestinal mucosa (AP; Santa Cruz sc-3716 - CAS9001-78-9) (calf) (UniProt P19111); experiment: capture ELISA, coated antibody, AP calibrator at 6.25 ng/ml, bound enzyme read with pNPP

Chain of UniProt P19111 (P19111 20-506): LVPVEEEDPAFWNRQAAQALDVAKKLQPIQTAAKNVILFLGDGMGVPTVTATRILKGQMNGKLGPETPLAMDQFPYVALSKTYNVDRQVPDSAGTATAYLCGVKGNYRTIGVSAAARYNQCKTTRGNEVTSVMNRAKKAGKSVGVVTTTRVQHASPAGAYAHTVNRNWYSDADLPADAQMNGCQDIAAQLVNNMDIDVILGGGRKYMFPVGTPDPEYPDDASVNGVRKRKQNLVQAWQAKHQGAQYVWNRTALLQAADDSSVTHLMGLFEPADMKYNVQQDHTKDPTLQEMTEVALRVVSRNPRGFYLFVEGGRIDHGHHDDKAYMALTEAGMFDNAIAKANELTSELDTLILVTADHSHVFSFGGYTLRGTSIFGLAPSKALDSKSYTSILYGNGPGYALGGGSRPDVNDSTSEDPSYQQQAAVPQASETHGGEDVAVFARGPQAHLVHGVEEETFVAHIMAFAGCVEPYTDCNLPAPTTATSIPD

- Abs. 415 nm, Abs. (1) [1]: 0.054 Abs. 415 nm
- Abs. 415 nm, Abs. (2) [1]: 0.05 Abs. 415 nm
- Abs. 415 nm, Abs. (3) [1]: 0.066 Abs. 415 nm
- Mean Abs. 415 nm [1]: 0.057 Abs. 415 nm
- Abs. 415 nm, Abs. (1) [2]: 0.628 Abs. 415 nm
- Abs. 415 nm, Abs. (2) [2]: 0.501 Abs. 415 nm
- Abs. 415 nm, Abs. (3) [2]: 0.476 Abs. 415 nm
- Mean Abs. 415 nm [2]: 0.535 Abs. 415 nm
- Abs. 415 nm, Abs. (1) [3]: 0.186 Abs. 415 nm
- Abs. 415 nm, Abs. (2) [3]: 0.156 Abs. 415 nm
- Abs. 415 nm, Abs. (3) [3]: 0.161 Abs. 415 nm
- Mean Abs. 415 nm [3]: 0.168 Abs. 415 nm
- Abs. 415 nm, Abs. (1) [4]: 0.345 Abs. 415 nm
- Abs. 415 nm, Abs. (2) [4]: 0.272 Abs. 415 nm
- Abs. 415 nm, Abs. (3) [4]: 0.294 Abs. 415 nm
- Mean Abs. 415 nm [4]: 0.304 Abs. 415 nm
- Abs. 415 nm, Abs. (1) [5]: 1.09 Abs. 415 nm
- Abs. 415 nm, Abs. (2) [5]: 1.03 Abs. 415 nm
- Abs. 415 nm, Abs. (3) [5]: 1.12 Abs. 415 nm
- Mean Abs. 415 nm [5]: 1.08 Abs. 415 nm
- Abs. 415 nm, Abs. (1) [6]: 0.11 Abs. 415 nm
- Abs. 415 nm, Abs. (2) [6]: 0.098 Abs. 415 nm
- Abs. 415 nm, Abs. (3) [6]: 0.089 Abs. 415 nm
- Mean Abs. 415 nm [6]: 0.099 Abs. 415 nm
Substance: anti-BAP polyclonal IgG antibody (produced in sheep) specific for bone alkaline phosphatase (Abcam Ab68716)
